Source: patent JP2018153172A (dated 2018)
Positions count from the first letter of the chain named. Ends that are not written are not given here.

Experiments:
[1] = molecular target: T1, 可溶性ヒトgp130受容体 (soluble human gp130 receptor, extracellular region of SEQ ID NO 1 with six histidines) (human, UniProt P40189 23-619); experiment: SPR, Biacore T200, gp130 on CM5 (4023 RU), COS1 supernatant as analyte, off-rate screening
T1 construct: Secreted from CHO DG44 cells and purified on HisTrap; no cleavage site is stated; also called 可溶性ヒトgp130受容体タンパク質; ヒト可溶性gp130受容体
T1 sequence: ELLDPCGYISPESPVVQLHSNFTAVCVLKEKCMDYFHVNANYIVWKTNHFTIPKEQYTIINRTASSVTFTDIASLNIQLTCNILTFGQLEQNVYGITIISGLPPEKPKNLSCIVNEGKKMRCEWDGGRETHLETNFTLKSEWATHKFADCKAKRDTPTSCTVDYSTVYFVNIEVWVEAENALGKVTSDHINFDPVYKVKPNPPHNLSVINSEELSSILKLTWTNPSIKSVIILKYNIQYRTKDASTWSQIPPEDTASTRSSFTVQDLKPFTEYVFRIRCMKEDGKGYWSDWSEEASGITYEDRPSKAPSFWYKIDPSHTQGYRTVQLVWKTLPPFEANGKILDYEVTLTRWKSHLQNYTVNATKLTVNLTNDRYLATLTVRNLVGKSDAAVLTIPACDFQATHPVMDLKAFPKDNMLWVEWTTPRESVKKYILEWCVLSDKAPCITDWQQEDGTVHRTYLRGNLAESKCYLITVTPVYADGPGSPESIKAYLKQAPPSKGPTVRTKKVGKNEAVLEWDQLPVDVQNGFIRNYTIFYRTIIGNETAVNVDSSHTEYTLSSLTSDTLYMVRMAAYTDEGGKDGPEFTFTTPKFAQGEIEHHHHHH

[2] = molecular target: T1, 可溶性ヒトgp130受容体 (soluble human gp130 …); experiment: SPR, Biacore T200, gp130 on CM5, antibody as analyte
[3] = molecular target: T1, 可溶性ヒトgp130受容体 (soluble human gp130 …); experiment: SPR, Biacore T200, gp130 amine-coupled on CM5 (389 RU), antibody as analyte
[4] = molecular target: T2, SEQ ID NO 127 (15-residue oligopeptide of human gp130) (human, also: linker added for immobilisation); experiment: peptide microarray, antibody at 10 ug/mL, fluorescence
T2 construct: also called 配列番号127
T2 peptide: VQDLKPFTEYVFRIR

[5] = molecular target: T3, SEQ ID NO 128 (15-residue oligopeptide of human gp130) (human, also: linker added for immobilisation); experiment: as above
T3 construct: also called 配列番号128
T3 peptide: DLKPFTEYVFRIRCM

[6] = molecular target: T4, SEQ ID NO 108 (15-residue oligopeptide of human gp130) (human, also: linker added for immobilisation); experiment: as above
T4 construct: also called 配列番号108
T4 peptide: SIKSVIILKYNIQYR

[7] = molecular target: T5, SEQ ID NO 109 (15-residue oligopeptide of human gp130) (human, also: linker added for immobilisation); experiment: as above
T5 construct: also called 配列番号109
T5 peptide: KSVIILKYNIQYRTK

[8] = molecular target: T6, SEQ ID NO 110 (15-residue oligopeptide of human gp130) (human, also: linker added for immobilisation); experiment: as above
T6 construct: also called 配列番号110
T6 peptide: VIILKYNIQYRTKDA

[9] = molecular target: T1, 可溶性ヒトgp130受容体 (soluble human gp130 …); experiment: SPR, Biacore T200, gp130 amine-coupled on CM5, antibody as analyte
[10] = molecular target: T1, 可溶性ヒトgp130受容体 (soluble human gp130 …); experiment: ELISA, immobilised soluble human gp130, recombinant antibody from COS1 cells
[11] = molecular target: T1, 可溶性ヒトgp130受容体 (soluble human gp130 …); experiment: ELISA, immobilised soluble human gp130, COS1 supernatant, anti-human antibody-HRP
[12] = molecular target: T1, 可溶性ヒトgp130受容体 (soluble human gp130 …); experiment: SPR, Biacore T200, gp130 amine-coupled on CM5 (266 RU), antibody as analyte

B1: ヒト化抗体A (H鎖 pFU-AH2, L鎖 AL−4F1) (antibody, V domains shown)
VH: QVQLQQPGAELVQPGTSVRLSCKASGYTFTDYNMDWVKQRPGQGLEWIGDINSHSGGIIYNQKFKDKATLTVDKSSSTAYMQLSSLTSEDSAVYYCTRTYYVYGHFFDYWGQGTLVTVSA
VL: DIQMTQSPSSLSASVGDRVTITCNVSSSVTSMYWYQQKQGKSPQLLVYLTSNLASGVPSRFSGSGSGTQFSLKINNLQPEDFGSYYCQQWSTNPLTFGQGTKLDLKR
notes: also called AL-L4F1 with AH2
binding result [1]: binds

B2: ヒト化抗体AH2−2AL4F1 (antibody, human IgG1, kappa, V domains shown)
VH: B1 VH with T97A
VL: B1 VL
notes: also called AH2−2L4F1
Kd [2]: 1.98 nM
koff [2]: 0.000221 s⁻¹
kon [2]: 111000 M⁻¹ s⁻¹

B3: ヒト化抗体A (H鎖 pFU-AH2, L鎖 AL−6E6) (antibody, V domains shown)
VH: B1 VH
VL: ELVLTQSPGTLSLSAGERATLSCNVSSSVTSMYWYQQKPGKAPKLLIYLTSNLASGVPSRFSGSGSGTDYTFTISSLQPEDIATYYCQQWSTNPLTFGQGTKVEIKR
notes: also called AL-L6E6 with AH2
binding result [1]: binds

B4: ヒト化抗体A (H鎖 pFU-AH2, L鎖 AL−14A10) (antibody, V domains shown)
VH: B1 VH
VL: DIQMTQSPSTLSASIGDRVTITCNVSSSVTSMYWYQQKPGKAPKLLIYLTSNLASGVPSRFSGSGSGTDFTLTISSLQPEDFATYYCQQWSTNPLTFGQGTKLEIKR
notes: also called AL-L14A10 with AH2
binding result [1]: binds

B5: ヒト化抗体AH2−L13H10 (antibody, V domains shown)
VH: B1 VH
VL: EIVLTQSPDFQSVTPKEKVTITCNVSSSVTSMYWYQQKPGKAPKLLVYLTSNLASGVPSRFSGSGSGTDFTLTINSLEAEDAATYYCQQWSTNPLTFGQGTKLEIKR
notes: also called AH2−13H10; AH2 with AL-13H10 (AL-L13H10)
Kd [3]: 2.27 nM
koff [3]: 0.000203 s⁻¹
kon [3]: 89300 M⁻¹ s⁻¹

B6: ヒト化抗体AH2−2L14A10 (antibody, human IgG1, kappa, V domains shown)
VH: B1 VH with T97A
VL: B4 VL
Kd [2]: 1.3 nM
koff [2]: 0.000202 s⁻¹
kon [2]: 155000 M⁻¹ s⁻¹

B7: ヒト化抗体AH2−2L6E6 (antibody, human IgG1, kappa, V domains shown)
VH: B1 VH with T97A
VL: B3 VL
Kd [2]: 0.991 nM
koff [2]: 0.000209 s⁻¹
kon [2]: 211000 M⁻¹ s⁻¹

B8: 抗体A (antibody A, mouse anti-human gp130 monoclonal antibody) (antibody, mouse IgG1, kappa, V domains shown)
VH: EVLLQQSGPELVKPGASVKIPCKASGYTFTDYNMDWVKQSHGKSLEWIGDINSHSGGIIYNQKFKDKAILTVDKSSSTAYMELRSLTSEDTAVYYCARTYYVYGHFFDYWGQGTTLTVSS
VL: QSVLTQSPAFISASPGEKVTMTCNVSSSVTSMYWYQQKPGSSPKPWIYLTSNLASGVPPRFSGSGSGTSYSLTISSLEAEDAATYYCQQWSTNPLTFGAGTKLELKR
notes: Mouse IgG1, kappa; also called マウス抗体A; ヒト化前の抗体A(マウス抗体)
binding result [4]: binds
binding result [5]: binds
binding result [6]: binds
binding result [7]: binds
binding result [8]: binds
Kd [9]: 0.667 nM
koff [9]: 0.000116 s⁻¹
kon [9]: 174000 M⁻¹ s⁻¹

B9: 抗体C (antibody C, mouse anti-human gp130 monoclonal antibody) (antibody, V domains shown)
VH: EVQVVESGGDLLLPGGSLKLSCAVSGFTFNAYGMSWVRQTPDKRLELVATINSNGDSTYYPDSVKGRFTISRDNAKHTLYLQMSSLKSEDTAMYYCANFYGGFPYWGQGTLVTVSA
VL: VIVLTQSHKFMSTSVGDRVSITCKASQDVDTAVAWYQQKVGHSPKLLIYWAVTRHTGVPDRFTGSGSGTDFTLTISNVQSEDLADYFCQQYSSYPYTFGGGTKLEIKR
notes: Mouse IgG2a, kappa; Entries are the polypeptides as encoded by the cDNA (leader probably included)
binding result [4]: binds
binding result [5]: binds
binding result [6]: binds
binding result [7]: binds
binding result [8]: binds
binding result [10]: binds

B10: ヒト化抗体A AH9−AL7 (antibody, V domains shown)
VH: EVQLVESGGGLVQPGGSLRLSCKASGYTFTDYNMDWVRQAPGKGLEWVGDINSHSGGIIYNQKFKDRFTISADTSKNTAYLQMNSLRAEDTAVYYCARTYYVYGHFFDYWGQGTLVTVSS
VL: DIQMTQSPSTLSASIGDRVTITCNVSSSVTSMYWFQQRPGQAPKVLIYLTSNLASGVPSRFSGSGSGTDFTFTISSLQPEDIATYYCQQWSTNPLTFGGGTKVDIK
notes: VH on human IgG1 constant region (pFUSEss-CHIg-hG1), VL on human kappa constant region (pFUSE2ss-CLIg-hk); also called AH9-AL7
binding result [11]: binds

B11: 抗体B (antibody B, mouse anti-human gp130 monoclonal antibody) (antibody, V domains shown)
VH: EVQLQQSGAELVKPGASVKLSCTASGFNIRDTYMHWVKQRPEQGLEWIGRIDPANGNTKYDPKFQDKATMTADTSSNTAYLQLSSLTSEDTAVYYCARRGNYFYAMDYWGQGTSVTVSS
VL: DIVLTQSPASLAVSLGQRATISCRASESVEYYGTSLMQWYQQKPGQPPKLLIYVASNVESGVPARFSGSGSGTDFSLNIHPVEEDDIAMYFCQQSRKVPWTFGGGTKLEIKR
notes: Mouse IgG2b, kappa; Entries are the polypeptides as encoded by the cDNA (leader probably included)
binding result [4]: binds
binding result [5]: binds
binding result [6]: binds
binding result [7]: binds
binding result [8]: binds
binding result [10]: binds

B12: ヒト化抗体A AH8−AL4 (antibody, V domains shown)
VH: EVQLVQSGAEVKKPGASVKVSCKASGYTFTDYNMDWVRQAPGKGLEWVGDINSHSGGIIYNQKFKDRVTITADRSTSTVYMELSGLRSEDTAVYYCARTYYVYGHFFDYWGKGTLVTVSS
VL: DIQMTQSPSSLSASVGDRVTITCNVSSSVTSMYWYQQKQGKSPQLLVYLTSNLASGVPSRFSGSGSGTDFTLTISSLQPEDFATYYCQQWSTNPLTFGQGTKVEIK
notes: VH on human IgG1 constant region (pFUSEss-CHIg-hG1), VL on human kappa constant region (pFUSE2ss-CLIg-hk); also called AH8-AL4
binding result [11]: binds

B13: ヒト化抗体AH2−AL3 (antibody, V domains shown)
VH: B1 VH
VL: B12 VL with S10T, Q39P, S42A, Q44K, V47I, S59A, D69E, E80D, I105V
notes: VH on human IgG1 constant region (pFUSEss-CHIg-hG1), VL on human kappa constant region (pFUSE2ss-CLIg-hk); also called AH2-AL3
Kd [12]: 3.8 nM
koff [12]: 0.000268 s⁻¹
kon [12]: 70600 M⁻¹ s⁻¹

B14: ヒト化抗体AH2−AL4 (antibody, V domains shown)
VH: B1 VH
VL: B12 VL
notes: VH on human IgG1 constant region (pFUSEss-CHIg-hG1), VL on human kappa constant region (pFUSE2ss-CLIg-hk); also called AH2-AL4
Kd [12]: 4.61 nM
koff [12]: 0.000289 s⁻¹
kon [12]: 62700 M⁻¹ s⁻¹
